Laboratory results reported in patent publication US6645504B1, “Bystander suppression of type I diabetes by oral administration of glucagon” (AutoImmune Inc., priority 1987, dated 2003).

Tests used:
EAE [1] = assay: In vivo bystander suppression of EAE (MBP/CFA plus secondary antigen); set-up: species or system Lewis rats; conditions: MBP fed before MBP/CFA immunization; FIG. 6B
Procedure: Immunization Of Animals. Animals were immunized with 25 μg of MBP in the footpad, emulsified in an equal volume of CFA containing 4 mg/ml of Mycobacterium tuberculosis (Difco Labs, Detroit, Mich.) in order to induce a substantial EAE disease state. For in vivo bystander suppression experiments, 50-300 μg of the secondary antigens OVA, BSA or KLH were injected subcutaneously in the same footpad in 100 μl PBS 8 hours after primary immunization with MBP CFA.
Clinical Evaluation. Animals were evaluated in a blinded fashion every day for evidence of EAE in order to correlate the clinical manifestations of Bystander Suppression with the in vitro assays described below. Clinical severity of EAE was scored as follows: 0, no disease; 1, limp tail; 2, hind limb paralysis; 3, hind limb paraplegia, incontinence; 4, tetraplegia; 5, death. Mean maximal clinical severity was calculated as previously described for each experimental group (7). Statistical analysis was performed using a one-tailed student's t test and a chi square analysis for comparing incidence between groups.
Induction Of Oral Tolerance. Animals were fed 1 mg MBP, OVA, BSA or KLH dissolved in 1 ml PBS or PBS alone, by gastric intubation using an 18-gauge stainless steel animal feeding needle (Thomas Scientific, Swedesboro, N.J.). Animals were fed five times (total dose of 5 mg), at intervals of 2-3 days with the last feeding 2 days before immunization.

OVA line = assay: Transwell culture suppression of OVA T cell line; assay type: cell-based, Lewis rats
Description: Transwell Cultures. A dual chamber transwell culture system (Costar, Cambridge, Mass.), which is 24.5 mm in diameter and consists of two compartments separated by a semi-permeable polycarbonate membrane, with a pore size of 0.4 μm, was used. The two chambers are 1 mm apart, allowing cells to be coin-cubated in close proximity without direct cell-to-cell contact. To measure in vitro suppression of proliferative responses in transwell cultures, 5×10^4 MBP- or OVA-specific line cells, raised and maintained as previously described (Ben-Nun, A. et al., Eur. J. Immunol. 11:195, 1981), were cultured with 10^6 irradiated (2,500 rad) thymocytes, in 600 μl of proliferation media in the lower well. Spleen cells from orally tolerized rats or controls (fed BSA) were added to the upper well (5×10^5 cells in 200 μl). Spleen cells were removed 7-14 days after the last feeding, and a single cell suspension was prepared by pressing the spleens through a stainless steel mesh. MBP and OVA (50 μg/ml) were added in a volume of 20 μl. […] In some experiments, modulator cells were added in the lower well together with responder cells, and in these instances modulator cells were irradiated (1,250 rad) immediately before being placed in culture. Proliferation media consisted of RPMI 1640 (Gibco Laboratories, Grand Island, N.Y.) supplemented with […] 2-mercaptoethanol, 1% sodium pyruvate, 1% penicillin and streptomycin, 1% glutamine, 1% HEPES buffer, 1% nonessential amino acids, and 1% autologous serum. Each transwell was performed in quadruplicate. The transwells were incubated at 37° C. in a humidified 6% CO2 and 94% air atmosphere for 72 hours. After 54 hours of culture, each lower well was pulsed with 4 μCi of [^3H]thymidine and at 72 hours split and reseeded to three wells in a round-bottomed 96-well plate (Costar) for harvesting onto fiberglass filters and counting using standard liquid scintillation techniques. Percent suppression =100×(1−Δ A cpm responders cultured with modulators/Δ cpm of responders).

DTH responses = DTH responses in animals fed MBP or MBP peptides; assay type: in vivo, Lewis rats; conditions: FIG. 15
Description: Guinea pig MBP peptide 131-150 was ineffective in this case. Peptides were also fed with STI which prevents their breakdown by gastric juices and enhances their biological effect. DTH responses to whole MBP were suppressed by feeding MBP or any one of the MBP-peptides 21-40, or 71-90.

EAE [2] = assay: EAE induced by guinea pig MBP 71-90, feeding of MBP peptides; assay type: in vivo, Lewis rats; conditions: fed; FIG. 14
Procedure: The effects of feeding various peptides to Lewis rats induced for EAE by guinea pig MBP residue nos. 71-90 (the major immunodominant epitope of guinea pig MBP as shown in Example 3 above) were also studied.
EAE was induced by immunizing with 0.25 mg of guinea pig MBP amino acid residue nos 71-90 in Complete Freund's Adjuvant and the effect of feeding various guinea pig MBP peptides on EAE was examined.

[3] = MBP-fed modulators + MBP in upper well
[4] = MBP-fed modulators in upper well without MBP

B1: MBP: Guinea pig myelin basic protein purified from brain tissue (protein, UniProt P25188 1-167, looked up)
Myelin basic protein: ASQKRPSQRHGSKYLATASTMDHARHGFLPRHRDTGILDSIGRFFGSDRAAPKRGSGKDSHHAARTTHYGSLPQKSQRSQDENPVVHFFKNIVTPRTPPPSQGKGRGLSLSRFSWGAEGQKPGFGYGGRADYKSKGFKGAHDAQGTLSKIFKLGGRDSRSGSPMARR
disease severity (EAE [1]): 1.1±0.1
Percent Suppression (OVA line; [3]): 51%
Δ cpm (OVA line; [3]): 30,974 ± 3,450 cpm
Percent Suppression (OVA line; [4]): −5%
Δ cpm (OVA line; [4]): 65,868 ± 3,989 cpm
DTH responses to guinea pig MBP peptide 71-90 (DTH responses): suppressed
DTH responses to whole MBP (DTH responses): suppressed
down-regulation of EAE induced by guinea pig MBP 71-90 (EAE [2]): equally effective in down-regulating EAE
